Source: patent EP4471049A1 (Zealand Pharma A/S, priority 2023, dated 2024)
Like-named read-outs stand apart in the source and are kept apart here. *1 amine or outer side, *2 acyl side, *3 side chain or, on linkers, in order; H or OH if unused. Bridges are numbered along the chain shown (N, C = ends). [ ]: non-standard residue; d: D form. The star is where a group is joined. 4‑Aminomethyl‑phenylacetyl = 4-aminomethyl-phenylacetyl unit, its amine closes the lactam, O=C(Cc1ccc(CN[*:1])cc1)[*:2]; NH(2-(3-pyridyl)ethyl) = c1cncc(CCN*)c1; 2Nal = N[C@@H](Cc1ccc2ccccc2c1)C(=O)O; AEF = NCCOc1ccc(C[C@H](N)C(=O)O)cc1; 3Pal = N[C@@H](Cc1cccnc1)C(=O)O; αMeL = CC(C)C[C@](C)(N)C(=O)O; Dab = NCC[C@H](N)C(=O)O

T1: Nluc-IL23R fusion protein (human, UniProt Q5VWK5 22-629)
T1 construct: range 22-629; expressed with a secretion signal in HEK293 cells; used as crude membrane preparation; also called hIL-23R; human IL-23R; not shown: Nanoluc protein from the expression plasmid N1371 (Promega), N-terminal of IL-23R
T1 sequence (looked up): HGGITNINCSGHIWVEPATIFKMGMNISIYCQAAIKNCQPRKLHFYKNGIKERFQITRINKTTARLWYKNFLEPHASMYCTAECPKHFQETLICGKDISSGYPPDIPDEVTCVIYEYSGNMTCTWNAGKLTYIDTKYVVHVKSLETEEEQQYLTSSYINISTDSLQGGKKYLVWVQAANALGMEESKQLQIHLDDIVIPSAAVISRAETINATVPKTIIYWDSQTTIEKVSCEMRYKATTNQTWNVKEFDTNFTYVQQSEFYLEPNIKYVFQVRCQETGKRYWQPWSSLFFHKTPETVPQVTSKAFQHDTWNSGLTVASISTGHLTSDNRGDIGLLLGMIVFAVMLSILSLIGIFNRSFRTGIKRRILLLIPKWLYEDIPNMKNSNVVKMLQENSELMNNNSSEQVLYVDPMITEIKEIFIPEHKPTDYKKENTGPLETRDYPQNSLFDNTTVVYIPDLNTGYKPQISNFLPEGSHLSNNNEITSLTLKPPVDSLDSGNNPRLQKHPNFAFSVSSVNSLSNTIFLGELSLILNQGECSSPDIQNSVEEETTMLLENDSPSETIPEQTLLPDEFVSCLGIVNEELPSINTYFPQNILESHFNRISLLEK

T2: human IL-23R endogenously expressed on DB cells (human, UniProt Q5VWK5 24-629)
T2 sequence (looked up): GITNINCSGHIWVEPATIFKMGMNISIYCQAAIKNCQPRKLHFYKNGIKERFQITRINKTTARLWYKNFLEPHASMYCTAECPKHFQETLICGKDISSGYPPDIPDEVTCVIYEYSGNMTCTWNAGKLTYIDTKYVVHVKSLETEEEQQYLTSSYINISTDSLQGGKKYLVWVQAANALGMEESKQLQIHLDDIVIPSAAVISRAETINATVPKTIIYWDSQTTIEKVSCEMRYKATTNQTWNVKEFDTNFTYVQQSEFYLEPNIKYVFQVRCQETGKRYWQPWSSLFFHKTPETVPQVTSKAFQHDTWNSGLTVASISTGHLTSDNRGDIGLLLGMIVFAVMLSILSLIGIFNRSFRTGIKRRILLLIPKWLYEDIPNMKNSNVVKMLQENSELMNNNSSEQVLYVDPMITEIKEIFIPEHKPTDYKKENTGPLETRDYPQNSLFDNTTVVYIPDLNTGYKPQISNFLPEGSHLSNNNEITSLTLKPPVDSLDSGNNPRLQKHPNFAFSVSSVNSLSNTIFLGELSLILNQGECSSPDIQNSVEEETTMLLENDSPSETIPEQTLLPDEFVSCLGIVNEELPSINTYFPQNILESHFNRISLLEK

B1: Compound 7 (peptide)
peptide: [4‑Aminomethyl‑phenylacetyl]SEWQ[Dab][AEF][2Nal][αMeL]E[Dab]-{NH(2-(3-pyridyl)ethyl)}
modifications: lactam N-10, 3-6
SMILES: CC(C)C[C@]1(C)NC(=O)[C@H](Cc2ccc3ccccc3c2)NC(=O)[C@H](Cc2ccc(OCCN)cc2)NC(=O)[C@@H]2CCNC(=O)CC[C@H](NC(=O)[C@H](CO)NC(=O)Cc3ccc(cc3)CNC(=O)CC[C@@H](C(=O)N[C@@H](CCN)C(=O)NCCc3cccnc3)NC1=O)C(=O)N[C@@H](Cc1c[nH]c3ccccc13)C(=O)N[C@@H](CCC(N)=O)C(=O)N2
B2: Ref 122 (peptide)
peptide: [4‑Aminomethyl‑phenylacetyl]SEWQ[Dab][AEF][2Nal][αMeL]E[Dab][3Pal]-NH2
modifications: lactam N-10, 3-6
SMILES: CC(C)C[C@]1(C)NC(=O)[C@H](Cc2ccc3ccccc3c2)NC(=O)[C@H](Cc2ccc(OCCN)cc2)NC(=O)[C@@H]2CCNC(=O)CC[C@H](NC(=O)[C@H](CO)NC(=O)Cc3ccc(cc3)CNC(=O)CC[C@@H](C(=O)N[C@@H](CCN)C(=O)N[C@@H](Cc3cccnc3)C(N)=O)NC1=O)C(=O)N[C@@H](Cc1c[nH]c3ccccc13)C(=O)N[C@@H](CCC(N)=O)C(=O)N2

Key:
[1] = target: T1, Nluc-IL23R fusion protein; test: BRET competition vs TAMRA-labelled peptide, Nluc-IL23R membranes
[2] = target: T2, human IL-23R endogenously expressed on …; test: cell-based or functional assay
[3] = target: T2, human IL-23R endogenously expressed on …; test: cell-based or functional assay; remark: listed apart in the source
[4] = target: T1, Nluc-IL23R fusion protein; test: BRET competition vs TAMRA-labelled peptide, Nluc-IL23R membranes; remark: listed apart in the source
[5] = target: T2, human IL-23R endogenously expressed on …; test: cell-based or functional assay; remark: listed apart in the source
[6] = target: T2, human IL-23R endogenously expressed on …; test: cell-based or functional assay; remark: listed apart in the source
[7] = target: T2, human IL-23R endogenously expressed on …; test: cell-based or functional assay; remark: listed apart in the source

Row | Binder | % displacement (hIL-23R binding) [1] [%] | hIL-23 (pSTAT3) antagonist % inhibition [2] [%] | hIL-23 (pSTAT3) antagonist IC50 [2] | IC50 (pSTAT3) [3] | % displacement (hIL-23R binding) [4] [%] | IC50 (pSTAT3) [5] [pM] | IC50 (pSTAT3) [6] [pM] | IC50 (pSTAT3) [7] [pM]
1 | B1 | 102 | 98 | 0.13 nM | 0.13 nM | – | – | – | –
2 | B2 | – | 99 | 28 pM | 28 pM | 97 | 28 | 28 | 28
